# Experimental data reported in article PMC12316308, “Interactions of substrates and phosphinyl containing inhibitors with bacterial and human zinc proteases” (PLOS One, 2025).
# Tested on: T1, COc1ccc2c(CC(=O)N3CCC[C@H]3C(=O)N[C@@H](CC(C)C)C(=O)NCC(=O)N[C@@H](CC(C)C)C(=O)N[C@@H](CNc3ccc([N+](=O)[O-])cc3[N+](=O)[O-])C(=O)N[C@@H](C)C(=O)N[C@@H](CCCNC(=N)N)C(N)=O)cc(=O)oc2c1
# T1 construct: made in house; host or cells: Sf9 and High Five insect cells
# Experiment: Determination of Km values
# Format: biochemical, human
# Settings: other: MMP-9(MT); 1% DMSO; n = 3; pH 7.5
# Method: Determination of Km values. […] Substrate concentrations used were 1–10 µM in a total volume of 100 µL of 0.1 M Hepes pH 7.5 containing 10 mM CaCl2, 0.005% Brij-35 and 1.0% DMSO. […] Initial rate experiments were performed as described above to determine enzyme reaction velocities using a LS 50 Luminescence Spectrometer and the FL WinLab Software Package (Perkin Elmer). The Km and s.d values were calculated with Graph Pad Prism 5 using the Michaelis-Mention equation. […] During these experiments, reactions were monitored for only one minute, and initial reaction velocities were determined from the activity curves.
# Sequence of Mag-Trypsin activated recombinant MMP-9 (MMP-9(MT)) (Homo sapiens) (chain, as listed by the source): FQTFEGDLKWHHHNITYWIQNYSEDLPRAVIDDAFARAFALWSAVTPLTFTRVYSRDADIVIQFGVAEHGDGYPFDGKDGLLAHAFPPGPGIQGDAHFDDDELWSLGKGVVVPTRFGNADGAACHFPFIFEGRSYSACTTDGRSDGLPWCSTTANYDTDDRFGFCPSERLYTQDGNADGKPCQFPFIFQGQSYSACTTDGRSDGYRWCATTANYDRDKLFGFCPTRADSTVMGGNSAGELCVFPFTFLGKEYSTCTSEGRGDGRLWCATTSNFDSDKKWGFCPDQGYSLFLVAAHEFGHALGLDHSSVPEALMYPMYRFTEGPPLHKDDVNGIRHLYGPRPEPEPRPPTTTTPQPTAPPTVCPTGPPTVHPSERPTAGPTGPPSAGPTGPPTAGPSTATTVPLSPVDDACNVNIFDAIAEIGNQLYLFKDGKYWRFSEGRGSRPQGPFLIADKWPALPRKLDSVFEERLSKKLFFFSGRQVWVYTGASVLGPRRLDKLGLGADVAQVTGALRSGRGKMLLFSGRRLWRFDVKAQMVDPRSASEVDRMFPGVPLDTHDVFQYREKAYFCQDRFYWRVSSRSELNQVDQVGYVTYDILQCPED
substance,measurement,value
Mag-Trypsin activated recombinant MMP-9 (MMP-9(MT)) (Homo sapiens),Km,2.7 ± 0.5 µM
